Tests used:
[1] = target: FcγRI (human) (UniProt P12314); experiment: Biacore, KD from kinetic constants (koff/kon)
[2] = target: FcγRIIIA F158 (human) (UniProt P08637); experiment: Biacore, KD from equilibrium analysis
[3] = target: FcγRIIA R131 (human) (UniProt P12318); experiment: Biacore, KD from equilibrium analysis
[4] = target: FcγRIIB (human) (UniProt P31994); experiment: Biacore, KD from equilibrium analysis
[5] = target: FcγRIIA H131 (human) (UniProt P12318); experiment: Biacore, KD from equilibrium analysis
[6] = target: Human C1q (human) (UniProt P02745); experiment: ELISA: plate coated with increasing amounts of antibody, human C1q at 8 µg/mL, anti-C1q antibody detection
Chain of Human C1q (human) (P02745 23-245 limits assumed, chain 1 of 3): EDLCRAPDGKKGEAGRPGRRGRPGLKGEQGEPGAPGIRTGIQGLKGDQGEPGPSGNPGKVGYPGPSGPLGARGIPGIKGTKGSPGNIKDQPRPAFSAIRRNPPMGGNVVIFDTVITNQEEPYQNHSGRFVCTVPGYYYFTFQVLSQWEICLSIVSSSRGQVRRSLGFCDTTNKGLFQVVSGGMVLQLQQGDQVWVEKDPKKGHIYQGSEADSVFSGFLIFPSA
Chain of Human C1q (human) (P02746 28-253 limits assumed, chain 2 of 3, further chain): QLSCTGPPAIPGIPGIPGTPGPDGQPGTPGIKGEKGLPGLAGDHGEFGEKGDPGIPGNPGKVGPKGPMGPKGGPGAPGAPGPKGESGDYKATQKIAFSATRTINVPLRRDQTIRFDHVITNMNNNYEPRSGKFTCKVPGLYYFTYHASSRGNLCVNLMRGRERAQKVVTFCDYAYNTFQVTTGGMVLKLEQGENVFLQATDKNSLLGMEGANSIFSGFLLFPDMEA
Chain of Human C1q (human) (P02747 29-245 limits assumed, chain 3 of 3, further chain): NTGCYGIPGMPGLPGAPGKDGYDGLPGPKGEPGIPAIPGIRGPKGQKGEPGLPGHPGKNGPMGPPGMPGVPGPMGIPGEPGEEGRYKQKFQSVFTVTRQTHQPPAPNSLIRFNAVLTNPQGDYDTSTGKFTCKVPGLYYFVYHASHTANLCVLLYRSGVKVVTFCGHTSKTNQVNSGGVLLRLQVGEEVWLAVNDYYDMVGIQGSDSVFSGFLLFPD

Chain of FcγRIIA H131 (human) (P12318 36-218 limits assumed): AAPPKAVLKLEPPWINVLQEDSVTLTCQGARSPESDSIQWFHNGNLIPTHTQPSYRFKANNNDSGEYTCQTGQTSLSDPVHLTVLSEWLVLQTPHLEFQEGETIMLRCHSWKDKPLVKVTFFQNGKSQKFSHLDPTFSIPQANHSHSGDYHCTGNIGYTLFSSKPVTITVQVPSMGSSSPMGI
Chain of FcγRIIB (human) (P31994 46-217 limits assumed): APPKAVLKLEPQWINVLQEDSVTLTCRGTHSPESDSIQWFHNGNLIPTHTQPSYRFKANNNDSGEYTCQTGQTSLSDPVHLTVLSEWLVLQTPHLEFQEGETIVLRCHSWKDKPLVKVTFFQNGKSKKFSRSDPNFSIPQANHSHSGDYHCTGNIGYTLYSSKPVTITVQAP
Chain of FcγRI (human) (P12314 16-288 limits assumed): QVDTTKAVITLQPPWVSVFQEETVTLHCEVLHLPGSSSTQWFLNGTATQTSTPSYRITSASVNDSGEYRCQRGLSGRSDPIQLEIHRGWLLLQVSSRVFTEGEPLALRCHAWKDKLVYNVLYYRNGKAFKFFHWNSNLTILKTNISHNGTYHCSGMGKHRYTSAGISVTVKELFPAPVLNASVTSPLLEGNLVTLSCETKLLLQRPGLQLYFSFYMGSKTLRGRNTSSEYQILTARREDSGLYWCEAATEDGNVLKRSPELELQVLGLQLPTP
Chain of FcγRIIA R131 (human) (P12318 36-218 H167R limits assumed): as the sequence (P12318 36-218 limits assumed) above, with H132R counted along it
Chain of FcγRIIIA F158 (human) (P08637 17-208 limits assumed): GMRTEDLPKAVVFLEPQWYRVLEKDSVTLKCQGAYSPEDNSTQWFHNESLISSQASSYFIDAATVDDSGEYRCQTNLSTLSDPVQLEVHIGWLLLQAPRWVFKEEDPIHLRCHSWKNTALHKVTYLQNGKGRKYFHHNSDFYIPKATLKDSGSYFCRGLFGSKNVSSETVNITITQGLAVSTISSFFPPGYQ

HuIgG (antibody) showed a Kd [1] of 2.7 nM, a Kd [2] of 691 nM and a Kd [3] of 481 nM. The Kd [4] was 3120 nM, the Kd [5] was 379 nM and the EC50 (read off the curve) [6] was 2 µg/mL.
